Experimental data: the DeepSol protein solubility set

Test: soluble on expression in E. coli; label from the status in PepcDB or PDB records

**Q.** For “MTKPLILASQSPRRKELLDLLQLPYSIIVSEVEEKLNRNFSPEENVQWLAKQKAKAVADLHPHAIVIGADTMVCLDGECLGKPQDQEEAASMLRRLSGRSHSVITAVSIQAENHSETFYDKTEVAFWSLSEEEIWTYIETKEPMDKAGAYGIQGRGALFVKKIDGDYYSVMGLPISKTMRALRHFDIRA”, which “soluble on expression in E. coli” value is on record?
**A.** soluble

**Q.** For “AHHHHHHGSETEEIEAPKKKVPLAMVTIRPAKLFDIPYIMRIEQMSFKEAYPRGLFLTFLEANPDTFLVAEYNGKIVGYVMGYLRPDMEGHIMSIAVHPDYRGNGIGKALMIAVIKKLFEKGARWIGLEVRVSNYRAINLYKKLGFKIVKRIISYYSDGEDAYYMILRPEDFERVILS”, which “soluble on expression in E. coli” value is on record?
**A.** not soluble

**Q.** With “MQNVVGIDFQKSGKMEYYSPKGFDLDVGDWVVVESKRGLEMGRVKYAPLDVADQDVTLPLKEIVRLATEDDLLQYEKNEYDADEAMALCKETIQQHELEMRLVNCEYTLDKSKVIFNFTSDERVDFRKLVKVLAQKLKTRIELRQIGVRDEAKLLGGIGPCGRSLCCSTFLGDFEPVSIKMAKDQNLSLNPTKISGACGRLMCCLKYENDYYEEARAQLPDVGDAIETPEGNGKVIGLNILDISMQVKVEGLEQPLEYKMEELETLNLEHHHHHH” as the sequence, how does the “soluble on expression in E. coli” value read?
**A.** not soluble

**Q.** Which “soluble on expression in E. coli” value does the source give for “MTTDFTPWPEALAAQYRQLGYWQDKTLLDYLQQSAERTPNALALVGDNQQWRYQAMLERIEQLAAGFTELGLGCGDNVVLQLGNVAEFYLCFFALLRQGIRPILALPAHRLAEIRYFCQHSQAKAYLIDGAQRPFDYQALAQELLACCPTLQTVIVRGQTRVTDPKFIELASCYSASSCQANADPNQIAFFQLSGGTTGTPKLIPRTHNDYAYSVTASVEICRFDQHTRYLCVLPAAHNFPLSSPGALGVFWAGGCVVLSQDASPQHAFKLIEQHKITVTALVPPLALLWMDHAEKSTYDLSSLHFVQVGGAKFSEAAARRLPKALGCQLQQVFGMAEGLVNYTRLDDSAELIATTQGRPISAHDQLLVVDEQGQPVASGEEGYLLTQGPYTIRGYYRADQHNQRAFNAQGFYITGDKVKLSSEGYVIVTGRAKDQINRGGEKIAAEEVENQLLHHPAVHDAALIAISDEYLGERSCAVIVLKPEQSVNTIQLKRFLHQAGLADYKIPDQIQFIDQLPKTSVGKIDKNALRRRFDTLGLALMS” here?
**A.** not soluble

**Q.** Which “soluble on expression in E. coli” value does the source give for “MAHHHHHHMDKGCSDCFFACHRYENWIDNQKEQFLKQRGEYENVINGTSSSSSSVGGKRQTRRTRSISSDDNGYESKFYKKLKERGYSEVKNFFEKLNKEKECQNFDDKGGEFDFNEHVDKDKEYKGTFYHSKYCEVCPGCGVKRDGNDWKEKSGGRCTRKKRYKILDDNNFNGIDVLSFGDKRNEIKQKIDTFCGGSNEEKEKLKEQWKCYEAQYVKEDKKEDEEDEDEVEEEDDLKDAGGLCTLQNKKK” here?
**A.** not soluble

**Q.** Which “soluble on expression in E. coli” value does the source give for “MAHHHHHHMTTYTLVLLRHGESTWNKENKFTGWTDVPLSEKGEEEAIAAGKYLKEKNFKFDVVYTSVLKRAICTAWNVLKTADLLHVPVVKTWRLNERHCGSLQGLNKSETAKKYGEEQVKIWRRSYDIPPPKLDKEDNRWPGHNVVYKNVPKDALPFTECLKDTVERVLPFWFDHIAPDILANKKVMVAAHGNSLRGLVKHLDNLSEADVLELNIPTGVPLVYELDENLKPIKHYYLLDSEELKKKMDEVANQGKAK” here?
**A.** soluble

**Q.** Which “soluble on expression in E. coli” value does the source give for “MSLVLIQGAGIAGLALAREFTKAGIDWLLVERASEIRPIGTGITLASNALTALSSTLDLDRLFRRGMPLAGINVYAHDGSMLMSMPSSLGGNSRGGLALQRHELHAALLEGLDESRIRVGVSIVQILDGLDHERVTLSDGTVHDCSLVVGADGIRSSVRRYVWPEATLRHSGETCWRLVVPHRLEDAELAGEVWGHGKRLGFIQISPREMYVYATLKVRREEPEDEEGFVTPQRLAAHYADFDGIGASIARLIPSATTLVHNDLEELAGASWCRGRVVLIGDAAHAMTPNLGQGAAMALEDAFLLARLWCLAPRAETLILFQQQREARIEFIRKQSWIVGRLGQWESPWSVWLRNTLVRLVPNASRRRLHQRLFTGVGEMAAQEGHHHHHH” here?
**A.** not soluble

**Q.** With “MALSHSVKERTISENSLIILLQGLQGQITTVDLRDESVARGRIDNVDAFMNIRLANVTYTDRWGHQVELDDLFVTGRNVRYVHIPDGVDITATIEQQLQIIHRVRNFGGKGQGRREFPSKRP” as the sequence, how does the “soluble on expression in E. coli” value read?
**A.** soluble

**Q.** With “MGSDKIHHHHHHMSPRKPRSPTAPNSSASIAPIPRLMPKLFVLDSNVLMHDPTSLFRFQEHDIYITMTTLEELDNNKKGMSEVARNARQTSRFLDEIVSSAITDIDEGISLQLHGTKNATGRLFLQTQAITNVLPVYLASGSADNQIIGAVKFLHDTHQNRVVTLVSKDINMRIKARALGLAAEDYFNDKVLEDTDVLFSGIQELPEDFWDEHGKDMESWQQSGQTFYRVTGPLAGGFVINQFVYLEHDKPFYAQVKETSGRTAVLQTLKDYTHQKNNVWGITARNREQNFAFNLLMNPEVDFVTLLGQAGTGKTLLTLAAGLMQTLEHKVYSEIIMTRVTVPVGEDIGFLPGTEEEKMTPWMGALEDNLDVLNKTDSSAGEWGRAATLDLIRSRIKIKSLNFMRGRTFINKFLIIDEAQNLTPKQMKTLITRAGPATKVVCLGNIAQIDTPYLSEGSSGLTYVVDRFKGWNHSGHVTLQRGERSRLADYAAEIL” as the sequence, how does the “soluble on expression in E. coli” value read?
**A.** not soluble

**Q.** For “MRGSHHHHHHTDPALRAKRAVVVFSGGQDSTTCLVQALQQYDEVHCVTFDYGQRHRAEIDVARELALKLGARAHKVLDVTLLNELAVSSLTRDSIPVPDYEPEADGIPNTFVPGRNILFLTLAAIYAYQVKAEAVITGVCETDFSGYPDCRDEFVKALNHAVSLGMAKDIRFETPLMWIDKAETWALADYYGKLDLVRNETLTCYNGFKGDGCGHCAACNLRANGLNHYLADKPTVMAAMKQKTGLRGLCGR”, which “soluble on expression in E. coli” value is on record?
**A.** soluble

**Q.** With “GMSEPVFPTPEAAEDAFYAAFEARSLDDMMAVWARDDHVACIHPLAAPLNGRAAVAAGWRSMFGAAGRFRLQVKAVHEIRQADHVIRIVDEFLTIGDETAPRPAILATNVYRREADGWRMVLHHASPLQVGAKAGADTPPVVFH” as the sequence, how does the “soluble on expression in E. coli” value read?
**A.** soluble

**Q.** With “MAIKSPPTLIPLSHLSGEELQAHLRFNRVTDEKGRYLPFDELQYRIKKGENVDVAWTLTRLARNAAIQRINYCNEAGEQAGFNITPVIAEACELVDKRATALALKDQTERLRGAGAELSQLRLEEPITSSQLEGANTTTLVARKMLETGRSPRTEDEHMIAGNARLMAEIPHLLAEPLTPALIRQLHAIGMGGINDAKYRPGEFRETDDVVIADYDGNIVHQPPAAALLPERLEKVCQWLNSHEGYIHPLVRACILHFMLAHEHPFRDGNGRTSRALFYWYMLKSGYDVFKYISISRLLHAAPVKYAASYQYTESDGMDLTYFLEYQAGVIKRALQNWQQHIDEITQRSAKLDSVLFSSGVLKRLNPRQVTLLNVMLANPGKEYTVAEISASLGVSDNTVRADLRTIVKEGFAQEKKINDQQAVYFAHYPL” as the sequence, how does the “soluble on expression in E. coli” value read?
**A.** not soluble

**Q.** For “PFLELDTNLPANRVPAGLEKRLCAAAASILGKPADRVNVTVRPGLAMALSGSTEPCAQLSISSIGVVGTAEDNRSHSAHFFEFLTKELALGQDRILIRFFPLESWQIGKIGTVMTFL”, which “soluble on expression in E. coli” value is on record?
**A.** soluble

**Q.** Which “soluble on expression in E. coli” value does the source give for “MTKIIPVASGKGGVGKTSFVANVGYKLSSLGKTVILVDLDLGGSNLHTCLGVKNKGVGIGSFINKKSKSFSDLVCKTSYDKLYLIPGDALYTGTANLPFSIKKKIIESIQKDLIADFIFLDLGSGTSYNTIDFYLASYSGVIVTIPETPSILNAYSFLKNALYRLLYLGFPQKSPERDYIGNFFKDKIEGTNLGFKDLVVGIELISLSSSLKVKRMMNNFYPRVVLNRIETSEEIAMCENLINVVKNNINIPIEFIGFVPFAKSFREAINNRVPFIDFEKNSKLNKYFEFIAGNLIKSPIEGSPYIYDDIYDMIKDQSRFIRKLEHHHHHH” here?
**A.** soluble

**Q.** Which “soluble on expression in E. coli” value does the source give for “MIKIKAIERKAGFGKTSKTLWYPAIHLHSDVKFEEFIELVSDETTVSSADIKAVFDRAAKVLIRLLQDGKSIDCGDMGTYRPSITAKAGSGVDSADKVTVELVDKAKVIYTPRMKVKTALKGVRMERAERVLDVPYASSIKPNENNSGGSSSSDNNGHAGL” here?
**A.** not soluble

**Q.** With “MAHHHHHHSLIKSMTGFSRVEKVSGPYQFRVEMKSLNSKGLNIINQLPGYLSMKEIELNNLVQEYVSRGKVQTRVQVKFLEPPKVLEIDKNVVRAYYSMLDEIVGELSLPEPVKLSDLLNFREVFRIELSDEEIENIWNHLVPILREALEKLVEERKKEGQKIGADLKRILEDLSSRVEEIEKISDQLPALYREKIKEEVEKILPQDVSVKEDILENHVAFMATKADIREEITRLRSHIKRALELIESDEPVGMNLDFLGQEMLRELNTILSKSISGEITSLALEGKVLVSQFREQIQNVEEG” as the sequence, how does the “soluble on expression in E. coli” value read?
**A.** soluble

**Q.** For “FECGVNSLDEWLKRRALANQHSGASRTFVVADHDSRVYGYYAMAAGAVSHQAATSGVRRNMPDPVPVMVLARLAVDQRAQGIKLGAALLQDAVNRVVNVSHNVGVRALLVHALDDRAKQFYAHYGFKESPQHPM”, which “soluble on expression in E. coli” value is on record?
**A.** not soluble

**Q.** With “MSLIHYIPMFGKIKLTNLEIKMGNELISIKEEGDYFLYLRRDVERVIVGDYLQILPAPARGYGVKLMMVKLKRPIALAPGKSIEGFIQVPVEVSVKVGDSEIDRFGIGREKYALYGTLENGVIVRYCTGYIGNEPNGLGNLKVKIVNKGEDWGFIDRIVFPMLDLMYYSKDKAFYPLIRVEIQEDINVINTGEAPLPNLVSTGEEKSLRFRMRWEGHHHHHH” as the sequence, how does the “soluble on expression in E. coli” value read?
**A.** soluble

**Q.** Which “soluble on expression in E. coli” value does the source give for “SLAVDQTRYIFRGDKDALTITVTNNDKERTFGGQAWVDNIVEKDTRPTFVVTPSFFKVKPNGQQTLRIIMASDHLPKDKESVYWLNLQDIPPALEGSGIAVALRTKLKLFYRPKALLEGRKGAEEGISLQSRPDGRTMLVNTTPYIFAIGSLLDGNGKKIATDNGTTQKLLMFMPGDEVQVKGNVVKVDSLNDYGELQTWTINKKKPAAPEAAKAEKADTAEQK” here?
**A.** soluble

**Q.** For “MSGPAHLPYGGIPTFARAPLVQPDGDWQADVAALGVPFDIALGFRPGARFAPRALREASLRSVPPFTGLDGKTRLQGVTFADAGDVILPSLEPQLAHDRITEAARQVRGRCRVPVFLGGDHSVSYPLLRAFADVPDLHVVQLDAHLDFTDTRNDTKWSNSSPFRRACEALPNLVHITTVGLRGLRFDPEAVAAARARGHTIIPMDDVTADLAGVLAQLPRGQNVYFSVDVDGFDPAVIPGTSSPEPDGLTYAQGMKILAAAAANNTVVGLDLVELAPNLDPTGRSELLMARLVMETLCEVFDHVL”, which “soluble on expression in E. coli” value is on record?
**A.** soluble

**Q.** With “MGSDKIHHHHHHMKFSINRQKTIEIIGEYSNILKDNPVKPSLAGLFIQAKNNQVVFKGANTEIELIRYANCEIESEGQVLIKPALLLEYIKLLEGENINFEKKDGYLIVNNAEFSILDDNTYPELTEIIPIVIASENTVKFTMSLEKVKFLTNSSASTDTLFNSIKMIFKDNVLELVSTDSFRLIYMKKELNNMINKDVLVPGDSIAVLYKIFKDLDEEFSLAASDDKLIVTWKDAYFTCKLLSLSFPDFRPLINNTNHDKRFEFNRDELNLALKKVISVTKNSSDSKNVATFNFKGNQLLISGVSANAKINQKVNMIKTGEDLKLGMNCKYIKDFIDNVDKNIIIDATNSSSMLRFMEEGNENYIYLIMPVNIRV” as the sequence, how does the “soluble on expression in E. coli” value read?
**A.** not soluble

**Q.** For “MTDFSVWETAPFGATVDHILQRYHNVHRAQFEELVPLAQKVAQVHADTFPAEIAELLAYMQNELLMHMMKEERMLFPMINQGVGRGAAMPIGVMMHEHEEHDRAIARLKELTDNFQPPEGACGSWTRLYALAKEMVEDLNDHIHLENDILFARVLDS”, which “soluble on expression in E. coli” value is on record?
**A.** soluble

**Q.** Which “soluble on expression in E. coli” value does the source give for “MAHHHHHHMPEPLEETFSRVLSAKVARAKRVFGGDINETYRLEMEKDDVVYFLKLQRGTTADFYAAESLGLSLLSDVARTPRVVQTGEVNGDAYLIMTWIQSFPSAMRGGVRRNMAELGRMVAIVHRQTSPNGQFGSSVAVPLAGCKTSAGWSKDWATYYIESLLAPQVALARRKGYWSDRREAMFVAFSKRFCAFYASKKNVQPSLLHGDLWGGNVMYGESGEPYLIDPSSYYGHREVDIAMTRLFGGFGSEFYTAYEGEMPLEAGHASRVPWYQLLPLLCHLNLFGEAYGSSVDSAMAHVL” here?
**A.** not soluble
